Assays:
[1] = target: T1, PP2Ac C-terminal peptide meL309, ac-HVTRRTPDYFL-CH3 (α-carboxymethylated) (human, SMILES …); assay: SPR, from KD 11 nM against >5000 nM
T1 construct: also called Y307-meL309; mePP2Ac
T1 peptide: Ac-HVTRRTPDYFL-OMe
Source text: (A) Saturation curve of the titration of the α-carboxymethylated PP2Ac C-terminal peptide (SEQ ID NO:18) on 7C10-C5 or 2A10 immobilized on a Series S Sensor Chip CM5 (GE Healthcare, 10296958). […] (B) Saturation curve of the titration of the α-carboxymethylated PP4c C-terminal peptide (SEQ ID NO:20) on 7C10-C5 or 2A10 immobilized on a Series S Sensor Chip CM5 (GE Healthcare, 10296958). […] The KD values were obtained using the fitting tool of the BiacoreT200 Evaluation Software (version 3.1).
The differential affinity of anti-carboxymethylated PP2Ac antibodies, 7C10-C5 and 2A10, to carboxymethylated PP2A catalytic subunit versus noncarboxymethylated PP2A catalytic subunit was determined by surface plasmon resonance (SPR) on a Biacore T200 (GE Healthcare) at the Core Facility Biomolecular & Cellular Analysis (University of Natural Resources and Life Sciences Vienna BOKU). The affinity of 7C10-C5 for carboxymethylated and noncarboxymethylated catalytic subunit of PP4 (PP4c), a PP2A-related phosphatase, was also determined.

[2] = target: T2, mouse HA PP6c, carboxymethylated (immunoprecipitated from NIH3T3 cells) (mouse, UniProt Q9CQR6 1-305, C-terminal leucine α-carboxyl methyl ester (cellular methylation)); assay: Western blot of anti-HA immunoprecipitates from NIH3T3 cells, with quantification, N=3
T2 construct: mature; also called methylated PP6c; not shown: HA tag
T2 sequence (looked up): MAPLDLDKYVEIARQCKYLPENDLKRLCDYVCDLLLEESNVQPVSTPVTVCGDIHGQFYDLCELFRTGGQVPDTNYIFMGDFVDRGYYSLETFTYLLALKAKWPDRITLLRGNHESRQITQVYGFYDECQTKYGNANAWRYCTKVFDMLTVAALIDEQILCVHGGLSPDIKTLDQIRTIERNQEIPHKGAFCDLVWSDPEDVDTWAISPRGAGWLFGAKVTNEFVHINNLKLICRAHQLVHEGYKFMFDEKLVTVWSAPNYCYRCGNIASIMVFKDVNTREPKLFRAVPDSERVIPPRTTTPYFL
Source text: (A) Alignment of the C-termini of mammalian catalytic PP2Ac, PP4c and PP6c subunits (B) Immunoblotting of anti HA-immunoprecipitates of NIH3T3 cells either infected with retroviral supernatants of pBabe hygro (control) or pBabe hygro HA-PP2Ac (label “HA-PP2A), pBabe hygro HA-PP4c (label “HA-PP4”) or pBabe hygro HA-PP6c (label HA-PP6) using indicated antibodies. The label “7C10” refers to the 7C10-C5 monoclonal antibody. To equilibrate HA levels, 2 times more of the HA-PP4c and 3 times more of the HA-PP6c immunoprecipitates was loaded than HA-PP2Ac. The panel originates from 3 different blotting membranes for each antibody indicated in the panel. The blots are representative of N=3 independent immunoprecipitation experiments. The 2A10 and 7C10-C5 signals were quantified from N=3 independent experiments, normalized to the HA levels and the HA-PP2Ac signals were set to 1. Average and standard deviation (error bars) are shown. Statistical significance was assessed using ANOVA followed by Tukey's HSD as a post-hoc test. […]

B1: 7C10-C5 monoclonal antibody (antibody, V domains shown)
VH: DVQLQESGPGLVKPSQSLSLTCSVTGYSITSGYYWNWIRQFPGNKLEWMGYISYDGSNNYNPSLKNRISITRDTSKNQFFLKLNSVTTEDTATYYCAGRFAYWGQGTLVTVSA
VL: DVLMTQTPLSLPVSLGDQASISCRSSQSIVHSNGNTYLEWYLQKPGQSPKLLIYKVSNRFSGVPDRFSGSGSGTDFTLKINRVEAEDLGVYYCFQGSHVPWTFGGGTKLEIK
notes: Used as hybridoma culture supernatant (ELISA, Western blot, IHC) or at 50 µg/mL (SPR); also called 7C10 X63; clone 7C10-C5
[1]
  fold stronger binding than to non-carboxymethylated PP2Ac: ≥ 400 fold
[2]
  binding result: no binding

Reference: patent US20230121197A1, “ANTIBODIES SPECIFICALLY BINDING THE CARBOXYMETHYLATED CATALYTIC SUBUNIT OF PROTEIN PHOSPHATASE 2A” (Medizinische Universität Wien, priority 2020, published 2023)
